Data from the DeepSol protein solubility set.

Assay: soluble on expression in E. coli; label from the status in PepcDB or PDB records

Sequence	soluble on expression in E. coli
MTKIIPVASGKGGVGKTSFVANVGYKLSSLGKTVILVDLDLGGSNLHTCLGVKNKGVGIGSFINKKSKSFSDLVCKTSYDKLYLIPGDALYTGTANLPFSIKKKIIESIQKDLIADFIFLDLGSGTSYNTIDFYLASYSGVIVTIPETPSILNAYSFLKNALYRLLYLGFPQKSPERDYIGNFFKDKIEGTNLGFKDLVVGIELISLSSSLKVKRMMNNFYPRVVLNRIETSEEIAMCENLINVVKNNINIPIEFIGFVPFAKSFREAINNRVPFIDFEKNSKLNKYFEFIAGNLIKSPIEGSPYIYDDIYDMIKDQSRFIRKLEHHHHHH	soluble
MGSDKIHHHHHHMEVEITITVRKVRIPEDVAVLEIFGQYDKRARYLKKLFNVEFAVRDSEILIKGMDEKSVDAAHRVLDEIISITRDGHLLDWTEFEYLVERVSNSESVKEVYSNNSKGLIIGKKVKPKTLGQKKYLEAVEKNDVVFVIGPAGTGKTYLAVAVALDYLKMGKVNRIILTRPAVEAGEKLGYLPGDLSEKVEPYLRPLYDAIIDITSPDKFNSYRERGIIEIVPLAYMRGRTLNNSFIILDEAQNTTYQQMKMFLTRLGFNSKAVITGDITQVDIEKEKSGLIECQKILEGISGIEFVYLNESDVVRHPLVKKIIKAYEEYERSRKS	not soluble
MGSDKIHHHHHHMKQELALFIKKIIDLPAAEEKKLLAITRVYKVPKGDFYIQIGQIPKKFAFVAKGLFRYVYIDSKGNEFTKNFVPENNFALAYSSMIRHEVSKMAIEALEDSIICEIDYTDWLTLKKGNACWNIFLITILENAFTIKENRERDLLLLDAEQRYETFRQEFPALETRVKQHLIASYLGISPVSLSRIRKKRT	not soluble
WTCNKFRCGEKRLTRSLCACSDDCKDQGDCCINYSSVCQGEKS	soluble
AIAPAKERFFGFHPCKLVEQVEDCVRDLLEDALDGLETSLFRECALAFDALQENAVTSEHEHAKRLLLQQGLMRLRDALFTAFYDQMDRLQVYLLRNVFHIPPGLRIPNVNTSEDLVENWEQALGIDPSSVQIDANAEDEHAVDQELVALRQSLRVARQRLQRLCRERSVLEGAFHRLEGALQSRLASTLIPTEPEDPSGDCDALAKQVVTIARAVSELEAVVRSCRDQFLGDRSSAASGGAPPSGTVPAAAGGSDVGAQGALVRPPLELERIFDAHTKATRVDSLDAVDALRRALHRSC	soluble
MGSDKIHHHHHHMTLSITSNFDAGAIDVVSCERADAIRLRVRGDNRSEFAQWFYFRLTGARGERCVMTFENANDCAYPAGWRDYRAVASYDRVNWFRVPTSYDGQMLTIDHTPEFDSIHYAYFEPYSEERHSEFLGAVQQMPQASVVELGRTVEGRPMSLVVLGTPDEAGAAKKKVWIIARQHPGESMAEWFIEGLVKRLVGWGDWSGDPVARKLYDHATFYIVPNMNPDGSVHGNLRTNAAGANLNREWMEPDAERSPEVLVVRDAIHAIGCDLFFDIHGDEDLPYVFAAGSEMLPGFTEQQRVEQSAFIDSFKRASPDFQDEHGYPPGKYREDAFKLASKYIGHRFGCLSLTLEMPFKDNANLPDEHIGWNGARSASLGAAMLGAILEHVRAFA	not soluble
MDVIREYLMFNELSALSSSPESVRSRFSSIYGTNPDGIALNNETYFNAVKPPITAQYGYYCYKNVGTVQYVNRPTDINPNVILAQDTLTNNTNEPFTTTITITGSFTNTSTVTSSTTTGFKFTSKLSIKKVFEIGGEVSFSTTIGTSETTTETITVSKSVTVTVPAQSRRTIQLTAKIAKESADFSAPITVDGYFGANFPKRVGPGGHYFWFNPARDVLNTTSGTLRGTVTNVSSFDFQTIVQPARSLLDEQ	soluble
MEFTGKIIAILPPRGGVSKTSGNEWKSQEFVIENHDQYPRKMCFDVFGADKIEQFNIQMGEELTVSFDVDARQWNDRWFNSIRAWKVERVGAGAPMTPGAPVPPPAPSATPDFTMGDAKDDLPF	not soluble
MNQKLKVAIIGSGNIGTDLMIKVLRNAKYLEMGAMVGIDAASDGLARAQRMGVTTTYAGVEGLIKLPEFADIDFVFDATSASAHVQNEALLRQAKPGIRLIDLTPAAIGPYCVPVVNLEEHLGKLNVNMVTCGGQATIPMVAAVSRVAKVHYAEIVASISSKSAGPGTRANIDEFTETTSKAIEVIGGAAKGKAIIIMNPAEPPLIMRDTVYVLSAAADQAAVAASVAEMVQAVQAYVPGYRLKQQVQFDVIPESAPLNIPGLGRFSGLKTSVFLEVEGAAHYLPAYAGNLDIMTSAALATAERMAQSMLNA	soluble
MGSDKIHHHHHHMLLRKDEVFYIDLPRKIEKEEKVKEEKTKENAAEEIQRIEKMREKILSEAQEEARKIIEGARKDAEEILSNASSEAEALKLEAKKVLEEAKTMKNDFQKYILALKEKIQKQVNQRIEEILPELLDILRILFKKILEKEMDESTVERKLRSALSKVVGIKNVKIRINPEDAKKLDLSEVSKETLIPDPNVERGGVIVETDFGILDKTFSHQWELVEDIFEEVVGFEGHPERAEKEVE	not soluble
MGSDKIHHHHHHMSKLNLVHLNGLRAVEAVGRLGSLQAAASELGVSIGAISQQVIKAEQQLQLQLFERTSRGMVPTDVAEPVLDRLSAGFRHLSGAVALALKSDDTVLTISVAPVFAARWLVHRIGAFSERFPTIRLRMEASDRLIDPSSSDVDLCIRVGRGDWPGVRAELLLEQKVFPVCTPAMAKRLQSPADLLELPIVEDGRAMFSWDVWLAAAGLPGRSVCTRHVFSEASLCLDAALAGQGVLLAWQTIASQQLQQGQLVAPFGPAVPTGLAHYFVSPEGARRNDKVDAFKRWLRDELHEDMTRLAKAIPFLGGPFLKGECG	not soluble
MSADLKQSRLADWRQRALAFEREVGKAVIGLERPIRHILIAVFARGHVMLEGDVGVGKTTLLRAVARCLGGAYERVEGTIDLMPNDLVYHTYINELGKPQVEPGPVLKHGEELSVFFFNEVNRARPQVHSLLLRIMAEHAVSAFNREHFFPYLQVFADRNRVEKEETFEIPSAARDRFMMELHVETPADPALRRALMFDPKFHDVDRLLDTLTPGILPYREIPQIAPVIQQSVTASETLQQYALDLWEATRRPADYGVKLEGIDMDRLILAGASARGVSMMMRAARVAAWLDGRDYLVPEDIHDVFRETIGHRVFFNPVYELRRTALIDELLHAIRQKVAAPLEHHHHHH	soluble
MPKLYVIPTPIGNLKDITLRALEVLKEVNYIACEDTRRTMILLNHYGIKGKKLISYYEPKEEKQIPKILKVLEKEDVALVTDAGMPAISDPGYRLIRKCIEKGIEIEVLPGPSAVITALVGSGLPPDRFLFVGFPPKKGTKGFFEELKSCEDTTVILFENPNRLLKTLKIIHEVFGNVQACVARELTKLHEEYIRGNLEEIIQELESREKIKGEVVVLFRILEHHHHHH	soluble
MSLKFYEDGNIPEIPNMYFIYGDGGTGKTSLLKQLKGHKFVFSFDMSSNVLIGDKDVDVVIFEHNDAPNIQAMVEECIIRAIQNAKYQVIVLDNVTALQNLVLENIDNAAKDNRQNYQKLQLWFRDLGTILKESGKTIYATAHQLDNGSSGISGEGRFQADMNEKTFNAFTSMFDLVGRIYLAAGERMIDLDPEKGNHAKNRLDDRKLIKANELIQSEKGEGHHHHHH	soluble
GMNLQTDQTTTTADESAIRAFHRQMIDAWNRGSGEGFAAPFSETADFITFEGTHLKGRKEIAAFHQQAFDTVVKGTRLEGEVDFVRFVNSQLALMLVVIRVILPGQTETSASRDSLPLYVVTKGDEGWQIEGLLNTRKLTLERQFFLDDFDSLSAEAQRQVTDLVASLKQSH	soluble
QTPPRLVAIGGLSGSGKTTIAEALAAHVGAPPGARIVESDRIRKAMHGVPAETRLPDNAYRPDVSDRVYNEMTWRAGLILSEGGSVVADAVFDRPADRERIEKAARDRGIPFFGFWLEADPLVLWQRVSERKGGPSDATVDILSRQLQRKAG	not soluble
MSLAPFVAKDIRVDGVQGDLEQQIRASLPVRAGQRVTDNDVANIVRSLFVSGRFDDVKAHQEGDVLVVSVVAKSIISDVKIKGNSVIPTEALKQNLDANGFKVGDVLIREKLNEFAKSVKEHYASVGRYNATVEPIVNTLPNNRAEILIQINEDDKAKLASLTFKGNESVSSSTLQEQMELQPDSWWKLWGNKFEGAQFEKDLQSIRDYYLNNGYAKAQITKTDVQLNDEKTKVNVTIDVNEGLQYDLRSARIIGNLGGMSAELEPLLSALHLNDTFRRSDIADVENAIKAKLGERGYGSATVNSVPDFDDANKTLAITLVVDAGRRLTVRQLRFEGNTVSADSTLRQEMRQQEGTWYNSQLVELGKIRLDRTGFFETVENRIDPINGSNDEVDVVYKVKERNTGSINFGIGYGTESGISYQASVKQDNFLGTGAAVSIAGTKNDYGTSVNLGYTEPYFTKDGVSLGGNVFFENYDNSKSDTSSNYKRTTYGSNVTLGFPVNENNSYYVGLGHTYNKISNFALEYNRNLYIQSMKFKGNGIKTNDFDFSFGWNYNSLNRGYFPTKGVKASLGGRVTIPGSDNKYYKLSADVQGFYPLDRDHLWVVSAKASAGYANGFGNKRLPFYQTYTAGGIGSLRGFAYGSIGPNAIYAEYGNGSGTGTFKKISSDVIGGNAIATASAELIVPTPFVSDKSQNTVRTSLFVDAASVWNTKWKSDKNGLESDVLKRLPDYGKSSRIRASTGVGFQWQSPIGPLVFSYAKPIKKYENDDVEQFQFSIGGSFEGHHHHHH	not soluble
KFVSDVEKEMETLVEAVNKGKNSKKSHSFPPMNRDHRRIIHDLAQVYGLESVSYDSEPKRNVVVTAIR	soluble
MRTLAIDIGGTKIALAIVEEGTIIQRYQIATPVVQDVTKFVQAILEKVTEWLPSIDYVGVSTTGYVTPEGITSINPETLNFPVPFPLAQTLEQLTNKPVSILNDAQAAAWFEFVQLKNPSLNMAFITVSTGVGGGIIIDGKLHKGNSGLAGHIGHMSVAIEGPLCGCGQRGCVESMASGNAIQKESEATFTETMSNVELFKQAAFNPKAEAIINRSVQAVATLCCNLKACLDLDIIVLGGGIGLAEGYLERLNKAIQSRPSVFHIPVTPAHGDYDACLLGAAFQFKE	not soluble
GPGSMADNEEVPPSGPRMTREETDELVRRLYDQQMERAARREEERQRQLARPFCSSRRIKKDEEENLVRRIYDVQRERFQQSKEERERRLTLELQSKDKKLPESEIQDQVDRIYNQEVAKSKARREELQKRYLPEVPPKTIGKKQLKESVERLFRVDYVKRDEELFKKHVYPYDPPTTKISRTDVEAMANRLSRRGS	not soluble
MSTEKWRTGLQIQQLHTPTDNVDRSAMKKISSMFSALQEKFQRAKAGAPTPAAVAPPAGRESHCGLRFFEYLLVVSLRKRSSGVGYEPQVTYQFPKREVMGRLQREQEEKSMKAAHLFCFPEGVHWAPVTEYSSETFSFVLTEVDGSRRNGYCRRLLPAGKGARLPEAYCIISHVACFGLFSKIFDEVEKRRQISTAMIYPFMQSLREAPLPSPGSTVSISSFIPDAGTQIIRLTRPADSWLEHVDFTALFSRLNDEELLLVFTAAVLERRIIFISEELSTLSQVLHAVAALLYPFVWQHTFISIVPSVLIDVCEAPTPYLLGVQKSMMGLITDHSDVMIVDLSTGAPTKFITRIGDEESLLPLKLKEELLSGLSARTHHASTEQLNRLVSEAFLSVFVKTVGHFSEHIKRGGKPRQFQKKSFLKAVENKTYSSFVKLFIQTQMFDLFIQEEETQSNPNGFFHRKVKEHRDRMKQEKAKAGWVRGVVI	soluble
MYYYVNEHEKALADFDKVIELNPKEDKTYYWKGLVYEYLKQYESSLVYLNKAIQLNDKNYKYYELRSLVYKQLREYDKAYSDVNVAIKLNQNNGILYSLRGLLNKYLNKYNDAIIDYNKSIELMPEFIAPYKSLLSIYLQTQNYEAGLEVANKAINIEQSWILYSTRGYLFLMLQSYNEAISDSNRAIKLNSGFADSYLTRGKAYLALKEYKKAIEDFDRAIELDSDNIDKVKQEAYEALAEMGEK	not soluble
